{
  "source": "paper PMC10255477",
  "about": "“The Inhibitory Effects and Cytotoxic Activities of the Stem Extract of Nepenthes miranda against Single-Stranded DNA-Binding Protein and Oral Carcinoma Cells”",
  "key": {"[1]": {"target": "T1, KpSSB (single-stranded DNA-binding protein) (Klebsiella pneumoniae, UniProt A6TGW7 1-174)", "T1 sequence (A6TGW7 whole entry)": "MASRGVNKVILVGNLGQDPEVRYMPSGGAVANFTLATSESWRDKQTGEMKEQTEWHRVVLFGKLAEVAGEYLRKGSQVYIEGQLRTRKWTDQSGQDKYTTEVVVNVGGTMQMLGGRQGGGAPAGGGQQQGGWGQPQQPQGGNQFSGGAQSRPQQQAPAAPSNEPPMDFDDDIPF", "assay": "EMSA; EMSA: 40 mM Tris-HCl pH 7.5, 50 mM NaCl, 37 °C, 60 min; DNA 30 fmol/uL; 8% native PAGE in TBE; [Protein]50 by linear interpolation", "details": "protein: recombinant; chain copies: 4; label: 5' biotin"}, "[2]": {"target": "T1, KpSSB (single-stranded DNA-binding …)", "assay": "EMSA; up to 5000 nM protein, no shift; EMSA: 40 mM Tris-HCl pH 7.5, 50 mM NaCl, 37 °C, 60 min; DNA 30 fmol/uL; 8% native PAGE in TBE; [Protein]50 by linear interpolation", "details": "protein: recombinant, chain copies: 4"}},
  "data": [
    {"binder": "TTTTTTTTTTTTTTTTTTTTTTTTTTTTTT (ssDNA)", "note": "[dT30]", "values": [
      {"measurement": "apparent K (half saturation)", "setting": "[1]", "result": "155 ± 20", "unit": "nM"}
    ]},
    {"binder": "TTTTTTTTTTTTTTTTTTTTTTTTTTTTTTTTTTT (ssDNA)", "note": "[dT35]", "values": [
      {"measurement": "apparent K (half saturation)", "setting": "[1]", "result": "117 ± 18", "unit": "nM"}
    ]},
    {"binder": "TTTTTTTTTTTTTTTTTTTT (ssDNA)", "note": "[dT20]", "values": [
      {"measurement": "binding result", "setting": "[2]; label: 5' biotin", "result": "no binding"}
    ]},
    {"binder": "PS4/PS3 (dsDNA) DNA 1: GGGTACCGAGCTATCCGAATTCGGG DNA 2: CCCGAATTCGGATAGCTCGGTACCC", "values": [
      {"measurement": "binding result", "setting": "[2]; blunt, 25 bp", "result": "no binding"}
    ]}
  ]
}
